Measured values from IntAct's records for PubMed 22835334.

B1: Huntingtin-interacting protein 1 (Homo sapiens), O00291 (parent)
chain: MDRMASSMKQVPNPLPKVLSRRGVGAGLEAAERESFERTQTVSINKAINTQEVAVKEKHARTCILGTHHEKGAQTFWSVVNRLPLSSNAVLCWKFCHVFHKLLRDGHPNVLKDSLRYRNELSDMSRMWGHLSEGYGQLCSIYLKLLRTKMEYHTKNPRFPGNLQMSDRQLDEAGESDVNNFFQLTVEMFDYLECELNLFQTVFNSLDMSRSVSVTAAGQCRLAPLIQVILDCSHLYDYTVKLLFKLHSCLPADTLQGHRDRFMEQFTKLKDLFYRSSNLQYFKRLIQIPQLPENPPNFLRASALSEHISPVVVIPAEASSPDSEPVLEKDDLMDMDASQQNLFDNKFDDIFGSSFSSDPFNFNSQNGVNKDEKDHLIERLYREISGLKAQLENMKTESQRVVLQLKGHVSELEADLAEQQHLRQQAADDCEFLRAELDELRRQREDTEKAQRSLSEIERKAQANEQRYSKLKEKYSELVQNHADLLRKNAEVTKQVSMARQAQVDLEREKKELEDSLERISDQGQRKTQEQLEVLESLKQELATSQRELQVLQGSLETSAQSEANWAAEFAELEKERDSLVSGAAHREEELSALRKELQDTQLKLASTEESMCQLAKDQRKMLLVGSRKAAEQVIQDALNQLEEPPLISCAGSADHLLSTVTSISSCIEQLEKSWSQYLACPEDISGLLHSITLLAHLTSDAIAHGATTCLRAPPEPADSLTEACKQYGRETLAYLASLEEEGSLENADSTAMRNCLSKIKAIGEELLPRGLDIKQEELGDLVDKEMAATSAAIETATARIEEMLSKSRAGDTGVKLEVNERILGCCTSLMQAIQVLIVASKDLQREIVESGRGTASPKEFYAKNSRWTEGLISASKAVGWGATVMVDAADLVVQGRGKFEELMVCSHEIAASTAQLVAASKVKADKDSPNLAQLQQASRGVNQATAGVVASTISGKSQIEETDNMDFSSMTLTQIKRQEMDSQVRVLELENELQKERQKLGELRKKHYELAGVAEGWEEGTEASPPTLQEVVTEKE

Variants of: B1
Settings: with hd_human HTT

Row | Variant | effect of a mutation on the interaction
1 | T528L | increasing interaction
2 | K510L | increasing interaction
